According to US20210221874A1 (TRUSTEES OF TUFTS COLLEGE, published 2021):

How the values were obtained:
[1] = target: T1, anthrax protective antigen, wild type PA83 (Bacillus anthracis, UniProt P13423 30-764); assay: SPR (Biacore 3000)
T1 construct: mature

[2] = target: T1, anthrax protective antigen, wild type …; assay: cell-based or functional assay
[3] = target: T1, anthrax protective antigen, wild type …; assay: dilution ELISA on PA-coated plates
[4] = target: T1, anthrax protective antigen, wild type …; assay: SPR (ProteOn XPR36)
[5] = target: T1, anthrax protective antigen, wild type …; assay: cell-based or functional assay; remark: listed apart in the source
[6] = target: T1, anthrax protective antigen, wild type …

T1 sequence (P13423 30-764): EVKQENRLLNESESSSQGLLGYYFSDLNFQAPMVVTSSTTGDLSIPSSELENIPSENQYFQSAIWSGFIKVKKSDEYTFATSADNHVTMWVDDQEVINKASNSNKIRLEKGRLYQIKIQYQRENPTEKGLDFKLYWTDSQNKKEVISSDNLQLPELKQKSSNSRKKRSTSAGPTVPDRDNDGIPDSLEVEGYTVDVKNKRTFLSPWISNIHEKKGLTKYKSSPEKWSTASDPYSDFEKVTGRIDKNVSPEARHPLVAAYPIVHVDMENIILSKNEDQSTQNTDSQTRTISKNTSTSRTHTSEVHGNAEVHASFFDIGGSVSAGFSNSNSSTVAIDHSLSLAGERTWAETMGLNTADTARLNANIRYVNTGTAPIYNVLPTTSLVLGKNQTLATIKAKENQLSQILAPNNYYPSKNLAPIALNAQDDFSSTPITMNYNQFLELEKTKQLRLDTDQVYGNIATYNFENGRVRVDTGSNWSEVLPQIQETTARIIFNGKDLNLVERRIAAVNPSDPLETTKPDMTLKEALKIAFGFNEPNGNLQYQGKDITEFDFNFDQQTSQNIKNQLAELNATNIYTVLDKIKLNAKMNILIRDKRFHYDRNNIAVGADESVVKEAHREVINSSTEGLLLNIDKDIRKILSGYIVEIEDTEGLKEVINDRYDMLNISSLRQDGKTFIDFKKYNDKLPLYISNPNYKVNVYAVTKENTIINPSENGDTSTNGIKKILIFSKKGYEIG

B1: JKO-E12 (VHH)
VHH: QVQLAETGGGLVQAGGSLRLSCLASRMSFSRRPMAWYRQAPGKQRERVATISSFGDTTNYTDSVEGRFTISRDNAKNTMYLQMNSLKPDDTAVYYCNTLLATYAWGQGTQVTVSS
Kd [1]: 0.2 nM | IC50 (anthrax lethal toxin neutralization, RAW264.7 macrophages) [2]: 0.2 nM | EC50 [3]: 0.1 nM

B2: JKH-D12 (VHH)
VHH: QVQLVETGGGLVQAGGTLRLSCAASGRTFTSYYIGWFRQEPGKEREFVASIGWTDDNTYYADSVKGRFTISRDNAETTAYLQMSGLKPEDTAVYYCAADYGSGIRAWYNWIYWGQGTQVTVSS
Kd [1]: 1 nM | EC50 [3]: 0.3 nM

B3: JIK-B10 (VHH)
VHH: QVQLVETGGGLVQPGGSLRLSCAASGFTFSSYRMSWYRQAAGKERDVVATITANGVPTGYADSVMGRFTISRDNAKNTVYLEMNSLNPEDTAVYYCNAPRLHTSVGYWGQGTQVTVSS
Kd [4]: 9 nM | IC50 (anthrax lethal toxin neutralization, RAW264.7 macrophages) [2]: 8 nM | EC50 [3]: 0.2 nM

B4: JKO-A4 (VHH)
VHH: QVQLAESGGGSVQPGGSLRLSCAASGFTFSSYTMSWVRQAPGKGIEWVSDINGGGDRTDYADSVKGRFTISRDNARNTLYLQMNSLQPEDTAVYYCAKDLSYVSGTYFANDWGQGTQVTVSS
Kd [1]: 10 nM | EC50 [3]: 0.3 nM

B5: JKO-H2 (VHH)
VHH: QVQLAESGGGLVQAGGSLRLSCAASGRTFSSYVMGWFRQAPGKEREFVAAISRNGGKTYYADSVKGRFTISRDGTENTVYLQMNSLKPEDTAVYYCAAAVAASAEFVTARSNFYEYWGQGTQVTVSS
notes: also called JKO-H12
Kd [1]: 4 nM | EC50 [3]: 0.6 nM

B6: JKO-B8 (VHH)
VHH: QLQLAESGGGLVQPGGSLRLSCTASGIIFDYYSVDWYRQAPGKERELVATITGDGSPNYADSVKGRFTISRDNAKKTVYLQMNGLKPEETAVYYCHAKRTIGTKSEYWGQGTQVTVSS
Kd [1]: 200 nM | EC50 [3]: > 100 nM

B7: JIK-B8 (VHH)
VHH: SGGGLVQPGGSLGLSCVVASERSINNYGMGWYRQAPGKQRELVAQISSGGTTNYADSVEGRFTISRDNVKKMVHLQVNSLKPEDTAVYYCNSLLRTFSWGQGTQVTVSS
Kd [4]: 0.13 nM | IC50 (anthrax lethal toxin neutralization, RAW264.7 macrophages) [2]: 1 nM | EC50 [3]: 0.2 nM | IC50 (read off the curve) [5]: ~1 nM

B8: JHD-B6 (VHH)
VHH: QVQLVESGGGLVQPGGSLRLSCAASGSSFSRYAMRWYRQAPGKQRELVANINSRGTSNYADSVKGRFTISRDNAKNTVYLQMNSLKPEDTAVYYCNAEWLGRSEPSWGQGTQVTVSS
Kd [4]: 66 nM | IC50 (anthrax lethal toxin neutralization, RAW264.7 macrophages) [2]: 10 nM | EC50 [3]: 0.5 nM

B9: JIJ-B8 (VHH)
VHH: SGGGLVQPGGSLSVSCAASGSIARPGAMAWYRQAPGKERELVASITPGGLTNYADSVTGRFTISRDNAKRTVYLQMNSLQPEDTAVYYCHARIIPLGLGSEYRDHWGQGTQVTVSS
Kd [4]: 8 nM | EC50 [3]: 0.4 nM

B10: JIJ-A12 (VHH)
VHH: QVQLVESGGGLVQPGGSLRLSCAASGIIFSIYTMGWYRQAPGKQRELVAAIPSGPSANATDSVGGRFTITRDNAENTVYLQMNDLKPEDTAVYYCNARRGPGIKNYWGQGTQVTVSS
Kd [4]: 45 nM | EC50 [3]: 2 nM

B11: JKH-A4 (VHH)
VHH: QVQLAETGGGLVQAGGSLRLSCSASGLTFGNYAMGWFRQAPGKEREFVASISRSGSNTWYAEPLKGRFAISRDNDKNALYLQMNSLKPEDTAVYYCAGGSYNSDWWNYMYWGQGTQVTVSS
Kd [1]: 9 nM | EC50 [3]: 0.5 nM

B12: JKH-C7 (VHH)
VHH: VQLVESGGGGLVQAGGSLRLSCAASGRTFSGYAMGWFRQAPGKEREFVADISWSGHNTYYGDSVKGRFTISRDTAKNTVYLQMNSLKPEDTAVYYCAAEGARTHLSDSYYFPGLWAEPPVGYWGQGTQVTVSS
notes: also called JHK-C7
EC50 (read off the curve) [6]: ~2 nM | Kd [1]: 7 nM | IC50 (anthrax lethal toxin neutralization, RAW264.7 macrophages) [2]: 5 nM | EC50 [3]: 2 nM | IC50 (read off the curve) [5]: ~4 nM

B13: JIJ-E9 (VHH)
VHH: QVQLVETGGLVQPGGSLRLSCAASRSTTATIYSMNWYRQAPGKQRELVAGMTSDGQTNYATSVKGRFTISRDNAKNTVYLLMNSLKLEDTAVYYCYVKPWRLQGWDYWGQGTQVTVSS
Kd [4]: 12 nM | IC50 (anthrax lethal toxin neutralization, RAW264.7 macrophages) [2]: 30 nM | EC50 [3]: 0.4 nM

B14: JKM-A6 (VHH)
VHH: QLQLAETGGGLVQPGGSLRLSCAASGATLDTYIITWFRQAPGKEREAVSCINRSGSTTYSDSVKGRFTISRDNAQKTVYLQMNSLNPEDTAIYYCAADASYRTCGGSWWNWAYWGQGTQVTVSS
Kd [1]: 20 nM | EC50 [3]: 0.3 nM

B15: JIJ-D3 (VHH)
VHH: QVQLVETGGLVQPGGSLRLSCAASGLTFSSTAMAWFRQAPGKEREFVARISGAGITIYYSDSVKDRFTISRNNVENTVYLQMNSLKTEDTAVYYCAARRNTYTSDYNIPARYPYWGQGTQVTVSS
Kd [4]: 18 nM | IC50 (anthrax lethal toxin neutralization, RAW264.7 macrophages) [2]: 9 nM | EC50 [3]: 0.3 nM
